This note sets out measurements from article PMC4505066 (2015).

B1: wild type GSI motif peptide (CPRPLKEGSITQGTPLKYDTG), SMRT amino acids 1450-1469 with an amino-terminal cysteine [modified: BODIPY-TMR coupled to the N-terminal cysteine; BODIPY-TMR coupled to the N-terminal cysteine] [not stated] / HDAC4 … (parent complex)
chain 1: CPRPLKEGSITQGTPLKYDTG
chain 2: TKPRFTTGLVYDTLMLKHQCTCGSSSSHPEHAGRIQSIWSRLQETGLRGKCECIRGRKATLEELQTVHSEAHTLLYGTNPLNRQKLDSKKLLGSLASVFVRLPCGGVGVDSDTIWNEVHSAGAARLAVGCVVELVFKVATGELKNGFAVVRPPGHHAEESTPMGFCYFNSVAVAAKLLQQRLSVSKILIVDWDVHHGNGTQQAFYSDPSVLYMSLHRYDDGNFFPGSGAPDEVGTGPGVGFNVNMAFTGGLDPPMGDAEYLAAFRTVVMPIASEFAPDVVLVSSGFDAVEGHPTPLGGYNLSARCFGYLTKQLMGLAGGRIVLALEGGHDLTAICDASEACVSALLGNELDPLPEKVLQQRPNANAVRSMEKVMEIHSKYWRCLQRTTSTAGRSLIEAQTCENEEAETVT

In this experiment the parent is B1. In words: fluorescence anisotropy.
For the variant chain 1 T11V, the Kd is 16.9 µM.

Turning to chain 1 T11A, the dissociation constant (Kd) amounted to 14.4 µM. Turning to chain 1 Q12E, the equilibrium dissociation constant (Kd) is 17.7 µM. Next, chain 1 Q12A: 5.47 µM; chain 1 P15A: 47 µM.
